Data reported in patent US20120100604A1, “METHODS AND COMPOSITIONS FOR GENERATING SELF ATTENUATING GENETIC CIRCUITRY” (THE REGENTS OF THE UNIVERSITY OF CALIFORNIA, priority 2008, published 2012).

Assays:
[1] = system: human satellite cells; assay: Myogenic regenerative capacity of human satellite cells (proliferating fusion-competent myoblasts, desmin/BrdU); assay type: cell-based; conditions: young and old human satellite cells in culture
Method: Myofiber and satellite cell cultures were isolated from basal state human biopsies, in a manner similar to those previously described for the mouse model (Conboy et al. (2003) Science 302:1575-1577). Whole muscle biopsies were prepared for myofiber fragments by enzymatic digestion −37° C. in DMEM (Invitrogen, Carlsbad, Calif.)/Pen-Strep (Invitrogen)/0.2% Collagenase Type IIA (Sigma), trituration, and multiple sedimentation and washing procedures. Isolated satellite cells and myofibers were resuspended in growth medium (Ham's F10 nutrient mixture—Mediatech, Inc., Herndon, Va.), 10% BGS, 5 ng/ml hbFGF (Invitrogen) and 1% Pen-Strep, and cultured on Matrigel (diluted 1:250). Blood was collected from subjects for sera isolation. Briefly, blood cells were coagulated followed by centrifugation at 8,000 rpm, 4° C. in a microfuge for 3 minutes. […]
To examine effects of TGF-β on myogenic properties of human muscle stem cells, exogenous molecule was added to young and old human satellite cells in culture. Myogenic capacity was determined based on numbers of fusion-competent, proliferating myoblasts, e.g., cells that rapidly (in approximately 2 hours) incorporate BrdU, co-express desmin and MyoD and fuse into eMyHC+myotubes when transferred to mitogen-low medium. […]

[2] = system: MAPK pathway / Notch in human satellite cells; assay: Western blot of Delta, active Notch and pERK in human satellite cells cultured with MAPK agonists and antagonists; assay type: cell-based; conditions: human satellite cells in culture
Method: Myofiber and satellite cell cultures were isolated from basal state human biopsies, in a manner similar to those previously described for the mouse model (Conboy et al. (2003) Science 302:1575-1577). Whole muscle biopsies were prepared for myofiber fragments by enzymatic digestion −37° C. in DMEM (Invitrogen, Carlsbad, Calif.)/Pen-Strep (Invitrogen)/0.2% Collagenase Type IIA (Sigma), trituration, and multiple sedimentation and washing procedures. Isolated satellite cells and myofibers were resuspended in growth medium (Ham's F10 nutrient mixture—Mediatech, Inc., Herndon, Va.), 10% BGS, 5 ng/ml hbFGF (Invitrogen) and 1% Pen-Strep, and cultured on Matrigel (diluted 1:250). Blood was collected from subjects for sera isolation. Briefly, blood cells were coagulated followed by centrifugation at 8,000 rpm, 4° C. in a microfuge for 3 minutes.
For Western Blot analysis, whole skeletal muscle lysates were prepared in lysis buffer (50 mM Tris, 150 mM NaCl, 1% NP40, 0.25% sodium deoxycholate and 1 mM EDTA, pH 7.4) with addition of protease inhibitor cocktail (Sigma) and 1 mM PMSF. Phosphatase activity was inhibited by 1 mM sodium fluoride and 1 mM sodium orthovanadate. For most assays, 30 μg protein extracts were run on pre-cast SDS PAGE gels (BioRad). Primary antibodies were diluted in 5% non-fat milk/1× PBST, and nitrocellulose membranes were incubated with antibody mixtures overnight at 4° C. HRP-conjugated secondary antibodies (Santa Cruz Biotech) were diluted 1:1000 in 1× PBST/1% BSA and incubated for 1 hour at room temperature. Blots were developed using Western Lightning ECL reagent (Perkin Elmer) and analyzed with Bio-Rad Gel Doc/Chemi Doc Imaging System and Quantity One software. Results were quantified by digitizing the data and normalizing pixel density of examined protein by actin-specific pixel density.
The levels of Delta, amounts of active Notch and the efficiency of myogenic responses in human satellite cells cultured in the presence of agonists and antagonists of MAPK pathway were investigated. […]

[3] = system: muscle stem cells (satellite cells); assay: Myogenic responses of mouse muscle stem cells in young or old mouse sera (TGF-β1 depletion and add-back, Wnt3A, FRP3); assay type: cell-based
Method: To examine the relative role of circulating TGF-β1 in the age-specific inhibition of muscle stem cell responses, TGF-β1 was depleted from young and old mouse sera and then added back in a range of concentrations. Muscle stem cells derived from young and old mice were cultured in the presence of young and old mouse sera that differed only in the levels of TGF-β1, and the regenerative responses of these cells were assayed. Serum was depleted of TGF-β1 by incubation with a TGF-β1 specific antibody (or an isotype-matched control IgG) followed by binding and removal of the TGF-β1-antibody complexes (or IgG control antibody complexes, e.g. control sera) using protein G-coated agarose beads. The success in the TGF-β1 depletion was confirmed by ELISA. The myogenic regenerative potential of muscle stem cells was quantified based on their ability to rapidly (overnight) generate de-novo myogenic lineages: BrdU-incorporating desmin+myoblasts (myogenic proliferation) that differentiate into post-mitotic eMyHC+myotubes (myogenic differentiation). The time course of such de-novo in vitro myogenesis that recapitulates the in vivo muscle repair is shown in FIG. 14A-D. Myogenic proliferation (at 24-28 hours of culture) and myogenic differentiation (at 48-72 hours of culture) were consistently higher for young satellite cells as compared to old satellite cells and in young sera as compared to old sera at all time points (FIGS. 17 and 18). The non-myogenic, desmin negative proliferating fibroblasts (known to contaminate satellite cell preparations at ˜2-5% and to expand in the presence of old sera or high levels of TGF-β (Carlson et al., 2008) were less numerous in cultures with experimentally calibrated levels of TGF-β1 (FIG. 15) and also declined in cultures with exogenous Wnt 3A (FIG. 16A).
Recombinant TGF-β1 was added at a range of concentrations to these mouse sera (depleted from endogenous TGF-β1) and assayed the regenerative responses of muscle stem cells, as above. […] The levels of TGF-β1 that are permissive for myogenic responses correspond to the range of bioactive TGF-β1 found in young blood sera, while the inhibitory range corresponds to the levels typical of aged circulation. The threshold mode of TGF-β1-imposed inhibition of muscle repair established here, also correlate well with the results of heterochronic parabiosis.
A similar rescue of satellite cell responses in the presence of old serum was reported to be achieved by inhibition of Wnt via FRPs, and exogenous Wnt3A was reported to inhibit satellite cell myogenic responses, in favor of fibroblast trans-differentiation (Brack et al., (2007), Science, 317:807-810). Thus, an investigation was conducted to determine whether Wnt was potentially synergistic with the TGF-β1-dependent attenuation of myogenic potential. Myogenic potential of young and old satellite cells was examined in the following conditions: young serum with exogenous Wnt3A (by itself or simultaneously with exogenous TGF β1) or old serum with exogenous FRP3 (by itself or simultaneously with TGF-β neutralization). […] In fact, consistent with the previously reported pro-myogenic activity of Wnt, Wnt3A […].
Myofiber explant cultures and primary myogenic progenitor cells were generated from C57/Bl6 mice using methods known in the art (see e.g., Conboy et al., (2003), Science, 302:1575-1577). Myoblasts were maintained in growth media (Ham's F-10, 20% FBS, 5 ng/ml basic-FGF, and penicillin-streptomycin). Opti-MEM was used to culture myofibers explants in 10% young, 10% old, or 10% young and old mouse serum (5% each). Differentiation media consisted of DMEM and 5% horse serum. Basic-FGF was obtained from Sigma (St. Louis, Mo.) and R&D systems (Minneapolis, Minn.), Opti-MEM was obtained from Invitrogen (Carlsbad, Calif.), and all other cell culture reagents were obtained from Cellgro (Herndon, Va.).

[4] = system: old muscle repair; assay: Muscle regeneration after CTX injury in mice given systemic TGF-β attenuators; assay type: in vivo, mouse
Method: Five days before the end of treatment, muscle was injured. At the end of treatment, animals were sacrificed and muscle was collected. BrdU was injected (intraperitoneal) at 3 days post-injury to label proliferating, fusion-competent myoblasts.
Experiments were conducted to rejuvenate muscle repair in old tissue by attenuating TGF-β pathway activity through systemic pharmacological intervention, in vivo. Three independent attenuators were used: (1) a small molecule inhibitor of TGF-β RI Kinase, (2) TGF-β neutralizing antibody and (3) a decoy composed of the extracellular portion of TGF-β receptor II. These molecules were administered systemically to mice, twice daily. After 10 days of dosage, muscle was injured by CTX, and 5 days after injury and BrdU administration the muscle was harvested, frozen, and examined histologically.
To control for the potential differences in the half-life of anti-TGF-β neutralizing antibody as compared to TGF-β RI Kinase inhibitor, constitutive systemic delivery of these molecules was provided by osmotic subcutaneous pumps for four weeks.

[5] = system: TGF-β/pSmad signaling; assay: Western blot of pSmad3 and TGF-β1 in muscle of treated old mice; assay type: in vivo, mouse; conditions: osmotic pumps
[6] = system: TGF-β1; assay: ELISA of circulating TGF-β1 in treated old mice; assay type: in vivo, mouse
Source text: Control injections/pumps of goat IgG yielded data typical of young and old untreated mice for muscle repair and TGF-β1 ELISA.

Molecule: FGF-2: MAPK agonist FGF-2
- myogenic regenerative capacity (proliferating fusion-competent myoblasts, desmin/BrdU) [1]: significantly enhanced
- Delta levels [2]: induced
- active Notch levels [2]: induced
- levels of pERK [2]: induced

Molecule: TGF-β1: recombinant TGF-β1 added to cultures or depleted sera [reference compound]
- concentration of TGF-β1 that alone suffices for inhibition of myogenic satellite cell responses ([3]; recombinant TGF-β1 added to mouse sera depleted of endogenous TGF-β1, 1-5 ng/ml and higher): 1 to 5 ng/mL
- myogenic regenerative capacity (proliferating fusion-competent myoblasts, desmin/BrdU) [1]: dramatically reduced

B1: FRP: exogenous FRP3, inhibitor of Wnt (protein, UniProt Q92765 33-325, looked up)
Secreted frizzled-related …: AACEPVRIPLCKSLPWNMTKMPNHLHHSTQANAILAIEQFEGLLGTHCSPDLLFFLCAMYAPICTIDFQHEPIKPCKSVCERARQGCEPILIKYRHSWPENLACEELPVYDRGVCISPEAIVTADGADFPMDSSNGNCRGASSERCKCKPIRATQKTYFRNNYNYVIRAKVKEIKTKCHDVTAVVEVKEILKSSLVNIPRDTVNLYTSSGCLCPPLNVNEEYIIMGYEDEERSRLLLVEGSIAEKWKDRLGKKVKRWDMKLRHLGLSKSDSSNSDSTQSQKSGRNSNPRQARN
- myogenic responses in old serum ([3]; old serum with exogenous FRP3): did not rescue
- regeneration of old muscle in vivo ([4]; experimental attenuation of Wnt by FRP): did not improve

B2: Wnt3A: exogenous Wnt3A (protein, UniProt P56704 19-352, looked up)
Protein Wnt-3a: SYPIWWSLAVGPQYSSLGSQPILCASIPGLVPKQLRFCRNYVEIMPSVAEGIKIGIQECQHQFRGRRWNCTTVHDSLAIFGPVLDKATRESAFVHAIASAGVAFAVTRSCAEGTAAICGCSSRHQGSPGKGWKWGGCSEDIEFGGMVSREFADARENRPDARSAMNRHNNEAGRQAIASHMHLKCKCHGLSGSCEVKTCWWSQPDFRAIGDFLKDKYDSASEMVVEKHRESRGWVETLRPRYTYFKVPTERDLVYYEASPNFCEPNPETGSFGTRDRTCNVSSHGIDGCDLLCCGRGHNARAERRREKCRCVFHWCCYVSCQECTRVYDVHTCK
- generation of fusion-competent proliferating myoblasts by satellite cells ([3]; Wnt3A simultaneously with exogenous TGF-β1, young serum): enhanced
- myotube formation ([3]; exogenous Wnt3A): enhanced
- presence of non-myogenic fibroblastic cells (desmin-BrdU+) ([3]; exogenous Wnt3A): actually reduced
- myogenic potential in young serum ([3]; young serum with exogenous Wnt3A): did not reduce

B3: soluble TGF-β receptor II: a decoy composed of the extracellular portion of TGF-β receptor II (protein, UniProt P37173 23-166, looked up)
extracellular domain: TIPPHVQKSVNNDMIVTDNNGAVKFPQLCKFCDVRFSTCDNQKSCMSNCSITSICEKPQEVCVAVWRKNDENITLETVCHDPKLPYHDFILEDAASPKCIMKEKKKPGETFFMCSCSSDECNDNIIFSEEYNTSNPDLLLVIFQ
modifications: extracellular domain
- muscle regeneration / myogenic regenerative capacity ([4]; old mice, systemic administration twice daily, CTX injury after 10 days, 5 days post-injury): did not result in the rejuvenation
- levels of TGF-β1 in old muscle [5]: not
- levels of pSmad3 in old muscle [5]: not
- circulating levels of TGF-β1 [6]: failed to reduce
